Experimental findings from patent US20240076386A1 (Pfizer, published 2024) are described below.

One may read the EC50 as the concentration that produces a half-maximal response. A low value points to greater potency. As usually defined, the IC50 is the concentration that gives 50% inhibition. A low value points to greater potency.

Test [1] concerns the target T1, human E-selectin extracellular domain with 10 His purification tail (human, UniProt P16581 22-556).
T1 construct: also called soluable human E-selectin extracellular domain; rhE-Selectin
T1 sequence: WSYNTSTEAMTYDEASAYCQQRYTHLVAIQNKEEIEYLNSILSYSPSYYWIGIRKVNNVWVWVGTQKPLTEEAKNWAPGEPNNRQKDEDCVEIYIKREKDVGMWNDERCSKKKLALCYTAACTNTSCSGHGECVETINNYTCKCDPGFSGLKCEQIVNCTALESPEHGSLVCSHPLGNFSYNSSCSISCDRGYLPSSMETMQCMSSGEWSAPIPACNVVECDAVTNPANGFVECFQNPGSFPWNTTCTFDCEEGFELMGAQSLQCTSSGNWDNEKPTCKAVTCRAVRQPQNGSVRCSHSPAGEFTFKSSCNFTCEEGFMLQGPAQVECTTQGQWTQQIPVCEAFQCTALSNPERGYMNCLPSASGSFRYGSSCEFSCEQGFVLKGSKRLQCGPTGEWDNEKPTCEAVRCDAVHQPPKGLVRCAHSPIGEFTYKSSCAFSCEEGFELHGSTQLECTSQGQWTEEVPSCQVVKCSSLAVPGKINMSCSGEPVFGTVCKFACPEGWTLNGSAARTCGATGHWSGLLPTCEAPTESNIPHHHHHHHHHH
The test can be described thus: antigen binding ELISA, HRP detection. As to the method: (§1) 384-well Maxisorp plates were used to capture the human and mouse His-tagged recombinant E-selectin polypeptides. The polypeptides were incubated with chimeric antibodies of varying concentrations and detected with HRP-labeled anti-human IgG1 antibodies.

Test [2] concerns the target T2, mouse E-selectin extracellular domain with 10 His purification tail (mouse, UniProt Q00690 22-557).
T2 construct: also called soluable mouse E-selectin extracellular domain; muE-Selctin
T2 sequence: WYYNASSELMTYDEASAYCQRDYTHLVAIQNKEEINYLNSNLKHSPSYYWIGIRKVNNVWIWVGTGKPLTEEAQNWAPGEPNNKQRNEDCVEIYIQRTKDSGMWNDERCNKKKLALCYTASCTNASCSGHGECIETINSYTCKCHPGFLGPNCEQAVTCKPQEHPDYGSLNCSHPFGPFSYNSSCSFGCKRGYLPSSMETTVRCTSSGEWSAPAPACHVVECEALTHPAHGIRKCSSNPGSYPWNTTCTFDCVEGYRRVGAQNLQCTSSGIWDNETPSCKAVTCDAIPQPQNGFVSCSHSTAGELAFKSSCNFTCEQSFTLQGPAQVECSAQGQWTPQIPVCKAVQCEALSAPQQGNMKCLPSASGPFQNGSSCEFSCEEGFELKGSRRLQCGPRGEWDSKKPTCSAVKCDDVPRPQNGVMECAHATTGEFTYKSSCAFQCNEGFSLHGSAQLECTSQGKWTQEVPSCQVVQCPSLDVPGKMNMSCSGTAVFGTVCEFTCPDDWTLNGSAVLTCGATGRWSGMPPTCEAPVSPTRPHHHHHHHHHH
The test can be described thus: antigen binding ELISA, HRP detection. How it is done:
as §1

Test [3] concerns the target T2, mouse E-selectin extracellular domain …. The experiment in a line: AlphaLISA competition vs sialyl Lewis A-PAA-biotin. How it is done: The neutralization ability of anti-E-selectin antibodies was measured in an AlphaLISA homogenous competition assay. […] This was incubated at room temperature for 15 minutes, followed by addition of 1.4 μL of human, mouse or cynomolgus monkey E-selectin added to a final concentration of 7 nM. This was again incubated at room temperature for 15 minutes. To this, 1.4 μL AlphaLISA beads was added (Ni-donor/SA-acceptor) for a final assay concentration of 10 μg/mL. This was incubated in the dark at room temperate for at least 10 hours. The plates were then read using the AlphaLISA protocol (Envision).
In general terms: Alpha assays give light when donor and acceptor beads are brought close together.

Test [4] addresses T3, human E-selectin, cell-surface expressed (human, UniProt P16581 22-610).
T3 construct: also called CHO-human E-selectin cells; human CHO-E
T3 sequence: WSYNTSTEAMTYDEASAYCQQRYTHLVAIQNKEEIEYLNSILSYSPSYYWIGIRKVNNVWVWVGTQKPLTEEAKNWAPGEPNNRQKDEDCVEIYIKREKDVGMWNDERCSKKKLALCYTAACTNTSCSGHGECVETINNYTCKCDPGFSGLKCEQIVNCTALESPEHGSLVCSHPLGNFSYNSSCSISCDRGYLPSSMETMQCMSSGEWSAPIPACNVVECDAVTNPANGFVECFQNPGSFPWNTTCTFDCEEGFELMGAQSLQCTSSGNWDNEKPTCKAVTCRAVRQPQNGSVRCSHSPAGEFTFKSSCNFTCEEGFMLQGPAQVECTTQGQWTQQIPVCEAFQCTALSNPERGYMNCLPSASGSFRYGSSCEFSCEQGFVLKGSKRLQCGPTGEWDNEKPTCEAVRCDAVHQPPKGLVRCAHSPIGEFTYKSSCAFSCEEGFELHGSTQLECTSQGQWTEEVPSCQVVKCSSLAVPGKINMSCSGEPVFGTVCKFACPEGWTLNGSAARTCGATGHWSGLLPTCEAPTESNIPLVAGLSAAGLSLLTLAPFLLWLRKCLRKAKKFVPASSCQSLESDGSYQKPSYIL
The test can be described thus: competition ELISA on CHO cells vs sialyl Lewis ligand-PAA-biotin/SA-HRP. How it is done:
In a static ligand cellular adhesion assay, horse radish peroxidase (HRP) conjugated E-selectin ligand (sialyl Lewis antigen) and E-selectin antibodies compete for binding to human or cynomolgus E-selectin expressed on Chinese hamster ovary (CHO) cells. The ability of anti-E-selectin antibodies to neutralize ligand binding was assessed in a static neutralization assay using a competition enzyme-linked immunosorbent assay (ELISA) to evaluate the neutralization of the sialyl Lewis antigen to Chinese hamster ovary cells (CHO) engineered to express human or cynomolgus monkey E-selectin.
CHO cells expressing E-selectin were seeded at 12,500 cells per well into a 96 well tissue culture plate and incubated at 37° C., 5% CO₂ for 48 hours to form a confluent monolayer. Plates were subsequently washed twice with 200 μL of calcium magnesium free PBS. Anti-E-selectin antibodies or an IgG1 isotype control (IgG control) were added to the assay in the presence of a small synthetic conjugate of biotinylated, sialyl Lewis A polyacrylamide (Carbosynth LLC, OS45446) or sialyl Lewis X polyacrylamide (Glycotech, 01-045) with streptavidin/horseradish peroxidase (100 μL total) and incubated at 37° C., 5% CO₂ for 2 hours. Plates were then washed twice with 200 μL of calcium and magnesium free PBS. Following the incubation, the cells were washed twice with 200 μL of wash buffer containing 2 mM of calcium chloride (50 mM TRIS [trisaminomethane], 150 mM sodium chloride; 0.05% polysorbate 20, pH 7.4; 2 mM calcium chloride). Signal was developed by adding 100 μL of 1-Step Ultra TMB substrate (Thermo Scientific, 34028) and incubating for 30 minutes at room temperature. Reactions were stopped using 2 M of sulfuric acid and absorbance was read at 450 nm (Spectramax M5e). Data were analyzed and graphed using GraphPad Prism software (Version 8.0.2).
For orientation: ELISA stands for enzyme-linked immunosorbent assay.

B1: anti-E-selectin antibody 0164 chimera (antibody, human IgG1, kappa, V domains shown)
VH: EVQLQQSGAEFGKPGTSVKLSCKVSGYNIRSSYMHWVNQRPGKGLEWIGRIDPANGNTIYAEKFKIKAILTADSSSNTAYMQLSQLKSDDTAIYFCAMDLYSTSEYWGQGVMVTVSS
VL: DIQMTQSPSFLSASVGDRVTINCKTSQNINRYLNWYQQKLGEAPKLLIYNANSLQTGIPSRFSASGSGTDFTLTINSLQPEDVATYFCLQDNSWPLTFGSGTKLEIKR
notes: rat VH/VL on effector-null human IgG1 and human kappa
With B1, the EC50 was 0.02 nM in test [1], more than 133 nM in test [2] and more than 133 nM in test [3]. This molecule had an IC50 in test [4] of 2.69 nM.
